The record followed here is publication PMC10090083, “Structural basis of impaired disaggregase function in the oxidation-sensitive SKD3 mutant causing 3-methylglutaconic aciduria” (Nature Communications, 2023).

This data set deals with the molecule itself. As to the kind of experiment: not stated; oligomeric state of the isolated Ank domains in solution (Supplementary Fig. 1a, b); method not given.

B1: Ank domain of human SKD3 isoform-1 (ANK_(iso1), residues 132-351) (domain or fragment, UniProt Q9H078 132-351, looked up)
chain: SNKDAALLEAARANNMQEVSRLLSEGADVNAKHRLGWTALMVAAINRNNSVVQVLLAAGADPNLGDDFSSVYKTAKEQGIHSLEDGGQDGASRHITNQWTSALEFRRWLGLPAGVLITREDDFNNRLNNRASFKGCTALHYAVLADDYRTVKELLDGGANPLQRNEMGHTPLDYAREGEVMKLLRTSEAKYQEKQRKREAEERRRFPLEQRLKEHIIGQE
notes: human SKD3 (CLPB) isoform-1, Ank domain construct, residues 132-351; TEV-cleavable tag; also called isolated Ank domain of SKD3; source: E. coli BL21-CodonPlus (DE3)-RIL, purified (IMAC, anion exchange, SEC); not shown: His6-SUMO, N-terminal, cleaved
As for B1, the “stoichiometry N” value came out at 2.
